# Measurements from patent US9284543B2, “Neutral active soluble truncated PH20 polypeptides and uses thereof” (Halozyme, Inc., priority 2008, dated 2016).
# Residue numbers refer to the chain shown, from its start. In names and notes the source's numbering stands.
# B1: SPAM1-FLKP: C-terminally truncated human PH20, precursor 471 aa (SEQ ID NO:29), mature 436 aa (SEQ ID NO:81) (protein, listed as Homo sapiens)
# chain 1: MGVLKFKHIFFRSFVKSSGVSQIVFTFLLIPCCLTLNFRAPPVIPNVPFLWAWNAPSEFCLGKFDEPLDMSLFSFIGSPRINATGQGVTIFYVDRLGYYPYIDSITGVTVNGGIPQKISLQDHLDKAKKDITFYMPVDNLGMAVIDWEEWRPTWARNWKPKDVYKNRSIELVQQQNVQLSLTEATEKAKQEFEKAGKDFLVETIKLGKLLRPNHLWGYYLFPDCYNHHYKKPGYNGSCFNVEIKRNDDLSWLWNESTALYPSIYLNTQQSPVAATLYVRNRVREAIRVSKIPDAKSPLPVFAYTRIVFTDQVLKFLSQDELVYTFGETVALGASGIVIWGTLSIMRSMKSCLLLDNYMETILNPYIINVTLAAKMCSQVLCQEQGVCIRKNWNSSDYLHLNPDNFAIQLEKGGKFTVRGKPTLEDLEQFSEKFYCSCYSTLSCKEKADVKDTDAVDVCIADGVCIDAFLKP
# chain 2: LNFRAPPVIPNVPFLWAWNAPSEFCLGKFDEPLDMSLFSFIGSPRINATGQGVTIFYVDRLGYYPYIDSITGVTVNGGIPQKISLQDHLDKAKKDITFYMPVDNLGMAVIDWEEWRPTWARNWKPKDVYKNRSIELVQQQNVQLSLTEATEKAKQEFEKAGKDFLVETIKLGKLLRPNHLWGYYLFPDCYNHHYKKPGYNGSCFNVEIKRNDDLSWLWNESTALYPSIYLNTQQSPVAATLYVRNRVREAIRVSKIPDAKSPLPVFAYTRIVFTDQVLKFLSQDELVYTFGETVALGASGIVIWGTLSIMRSMKSCLLLDNYMETILNPYIINVTLAAKMCSQVLCQEQGVCIRKNWNSSDYLHLNPDNFAIQLEKGGKFTVRGKPTLEDLEQFSEKFYCSCYSTLSCKEKADVKDTDAVDVCIADGVCIDAFLKP
# modifications: HuPH20 precursor 1-471; Mature HuPH20 36-471
# B2: SPAM1-LKPP: C-terminally truncated human PH20, precursor 472 aa (SEQ ID NO:28), mature 437 aa (SEQ ID NO:80) (protein, listed as Homo sapiens)
# chain 1: MGVLKFKHIFFRSFVKSSGVSQIVFTFLLIPCCLTLNFRAPPVIPNVPFLWAWNAPSEFCLGKFDEPLDMSLFSFIGSPRINATGQGVTIFYVDRLGYYPYIDSITGVTVNGGIPQKISLQDHLDKAKKDITFYMPVDNLGMAVIDWEEWRPTWARNWKPKDVYKNRSIELVQQQNVQLSLTEATEKAKQEFEKAGKDFLVETIKLGKLLRPNHLWGYYLFPDCYNHHYKKPGYNGSCFNVEIKRNDDLSWLWNESTALYPSIYLNTQQSPVAATLYVRNRVREAIRVSKIPDAKSPLPVFAYTRIVFTDQVLKFLSQDELVYTFGETVALGASGIVIWGTLSIMRSMKSCLLLDNYMETILNPYIINVTLAAKMCSQVLCQEQGVCIRKNWNSSDYLHLNPDNFAIQLEKGGKFTVRGKPTLEDLEQFSEKFYCSCYSTLSCKEKADVKDTDAVDVCIADGVCIDAFLKPP
# chain 2: LNFRAPPVIPNVPFLWAWNAPSEFCLGKFDEPLDMSLFSFIGSPRINATGQGVTIFYVDRLGYYPYIDSITGVTVNGGIPQKISLQDHLDKAKKDITFYMPVDNLGMAVIDWEEWRPTWARNWKPKDVYKNRSIELVQQQNVQLSLTEATEKAKQEFEKAGKDFLVETIKLGKLLRPNHLWGYYLFPDCYNHHYKKPGYNGSCFNVEIKRNDDLSWLWNESTALYPSIYLNTQQSPVAATLYVRNRVREAIRVSKIPDAKSPLPVFAYTRIVFTDQVLKFLSQDELVYTFGETVALGASGIVIWGTLSIMRSMKSCLLLDNYMETILNPYIINVTLAAKMCSQVLCQEQGVCIRKNWNSSDYLHLNPDNFAIQLEKGGKFTVRGKPTLEDLEQFSEKFYCSCYSTLSCKEKADVKDTDAVDVCIADGVCIDAFLKPP
# modifications: HuPH20 precursor 1-472; Mature HuPH20 36-472
# B3: N254A: PH20sHis N-glycosylation site mutant N254A, SEQ ID NO:205 (protein)
# chain: MGVLKFKHIFFRSFVKSSGVSQIVFTFLLIPCCLTLNFRAPPVIPNVPFLWAWNAPSEFCLGKFDEPLDMSLFSFIGSPRINATGQGVTIFYVDRLGYYPYIDSITGVTVNGGIPQKISLQDHLDKAKKDITFYMPVDNLGMAVIDWEEWRPTWARNWKPKDVYKNRSIELVQQQNVQLSLTEATEKAKQEFEKAGKDFLVETIKLGKLLRPNHLWGYYLFPDCYNHHYKKPGYNGSCFNVEIKRNDDLSWLWAESTALYPSIYLNTQQSPVAATLYVRNRVREAIRVSKIPDAKSPLPVFAYTRIVFTDQVLKFLSQDELVYTFGETVALGASGIVIWGTLSIMRSMKSCLLLDNYMETILNPYIINVTLAAKMCSQVLCQEQGVCIRKNWNSSDYLHLNPDNFAIQLEKGGKFTVRGKPTLEDLEQFSEKFYCSCYSTLSCKEKADVKDTDAVDVCIADGVCIDAFLKPPMETEEPQIFYNASPSTLSHHHHHH
# modifications: His tag; PH20sHis N254A
# B4: N82A: PH20sHis N-glycosylation site mutant N82A, SEQ ID NO:202 (protein)
# chain: B3 chain with N82A, A254N
# modifications: His tag; PH20sHis N82A
# B5: N166A/N254A: PH20sHis double mutant, SEQ ID NO:208 (protein)
# chain: B3 chain with N166A
# modifications: His tag; PH20sHis N166A/N254A
# B6: N166A: PH20sHis N-glycosylation site mutant N166A, SEQ ID NO:203 (protein)
# chain: B3 chain with N166A, A254N
# modifications: His tag; PH20sHis N166A
# B7: N82A/N254A: PH20sHis double mutant, SEQ ID NO:207 (protein)
# chain: B3 chain with N82A
# modifications: His tag; PH20sHis N82A/N254A
# B8: N82A/N166A: PH20sHis double mutant, SEQ ID NO:206 (protein)
# chain: B3 chain with N82A, N166A, A254N
# modifications: His tag; PH20sHis N82A/N166A
# B9: N82A/N166A/N254A: PH20sHis triple mutant, SEQ ID NO:209 (protein)
# chain: B3 chain with N82A, N166A
# modifications: His tag; PH20sHis N82A/N166A/N254A
# B10: SPAM1-KPPM: C-terminally truncated human PH20, precursor 473 aa (SEQ ID NO:27), mature 438 aa (SEQ ID NO:79) (protein, listed as Homo sapiens)
# chain 1: MGVLKFKHIFFRSFVKSSGVSQIVFTFLLIPCCLTLNFRAPPVIPNVPFLWAWNAPSEFCLGKFDEPLDMSLFSFIGSPRINATGQGVTIFYVDRLGYYPYIDSITGVTVNGGIPQKISLQDHLDKAKKDITFYMPVDNLGMAVIDWEEWRPTWARNWKPKDVYKNRSIELVQQQNVQLSLTEATEKAKQEFEKAGKDFLVETIKLGKLLRPNHLWGYYLFPDCYNHHYKKPGYNGSCFNVEIKRNDDLSWLWNESTALYPSIYLNTQQSPVAATLYVRNRVREAIRVSKIPDAKSPLPVFAYTRIVFTDQVLKFLSQDELVYTFGETVALGASGIVIWGTLSIMRSMKSCLLLDNYMETILNPYIINVTLAAKMCSQVLCQEQGVCIRKNWNSSDYLHLNPDNFAIQLEKGGKFTVRGKPTLEDLEQFSEKFYCSCYSTLSCKEKADVKDTDAVDVCIADGVCIDAFLKPPM
# chain 2: LNFRAPPVIPNVPFLWAWNAPSEFCLGKFDEPLDMSLFSFIGSPRINATGQGVTIFYVDRLGYYPYIDSITGVTVNGGIPQKISLQDHLDKAKKDITFYMPVDNLGMAVIDWEEWRPTWARNWKPKDVYKNRSIELVQQQNVQLSLTEATEKAKQEFEKAGKDFLVETIKLGKLLRPNHLWGYYLFPDCYNHHYKKPGYNGSCFNVEIKRNDDLSWLWNESTALYPSIYLNTQQSPVAATLYVRNRVREAIRVSKIPDAKSPLPVFAYTRIVFTDQVLKFLSQDELVYTFGETVALGASGIVIWGTLSIMRSMKSCLLLDNYMETILNPYIINVTLAAKMCSQVLCQEQGVCIRKNWNSSDYLHLNPDNFAIQLEKGGKFTVRGKPTLEDLEQFSEKFYCSCYSTLSCKEKADVKDTDAVDVCIADGVCIDAFLKPPM
# modifications: HuPH20 precursor 1-473; Mature HuPH20 36-473
# Experiments:
# [1] = test system: CHO-S cells; assay: Western blot analysis of PH20 expression in media and cells after transient expression; assay type: cell-based, Chinese Hamster; conditions: media versus cells
# Procedure, shortened: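 PH20 expression and solubility were judged by anti-PH20 Western blot of non-reduced media and cell fractions, with expression shown by a ~66 kDa band. Samples came from CHO-S cells transiently transfected (GeneJuice) with mutant PH20-HZ24 DNA and cultured 48-72 h. GPI-anchored mutants were cleaved with PI-PLC to release soluble protein.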
# [2] = Microtiter hyaluronidase activity assay with biotinylated-hyaluronic acid; assay type: biochemical; conditions: Table 6, 72 hour post transfection supernatant
# [3] = Hyaluronidase activity of N-glycan site specific deglycosylation mutants (biotinylated-HA assay); assay type: biochemical; conditions: media of transfected CHO-S cells
# Method: In short, a 4×BH 96-well plate was coated with biotinylated-HA (1.1 MDa). The 72 hour post transfection supernatant from cells transfected with human PH20 hyaluronidase carboxy-terminus deletion mutants was diluted in buffer at either pH 7.4 or pH 5.5 and added to individual wells of the plate and allowed to incubate at 37° C. for 90 minutes. The reaction was terminated by addition of 4M guanidine HCl. The wells were washed 4× with Phosphate Buffered Saline with Tween20 (PBST) to remove any digested biotinylated-HA followed by addition of streptavidin-HRP for 1 hour at room temperature. The wells were washed 4× with PBST and the plate was developed with TMB. The plate was read at 450 nm using an ELISA plate reader. Hyaluronidase activity (in Units/mL) was determined by interpolating the measured absorbance at 450 nm with a hyaluronidase reference standard curve. Full length mature human PH20 hyaluronidase and untransfected CHO cells were used as positive and negative controls.
# PH20sHis (SEQ ID NO:210) was used as a template for mutagenesis of each asparagine residue to alanine using QuikChange® Site-Directed Mutagenesis Kit (Cat No. 200518, Stratagene). […] Six single mutants were generated, one for each of the N-glycosylation sites. Additionally, three double mutants and a triple mutant were generated for asparagines N82, N166 and N254, all of which are occupied by complex type glycans. Finally, a double mutant N368A/N393A was generated, lacking high mannose glycans. The mutants were transfected into CHO—S cells and expression was performed as described in Example 2A. Secretion into the media and hyaluronidase activity were determined as described in Examples 3 and 5, above.
Molecule,Expressed in Media [1],pH 5.5 Activity [2],pH 7.4 Activity [2],Activity pH 5.5 [3],Activity pH 7.4 [3]
B1,YES,2.79 Units/ml,3.321 Units/ml,–,–
B2,YES,0.9 Units/ml,0.5445 Units/ml,–,–
B3,–,–,–,YES,YES
B4,–,–,–,YES,YES
B5,–,–,–,YES,YES
B6,–,–,–,YES,YES
B7,–,–,–,YES,YES
B8,–,–,–,YES,YES
B9,–,–,–,YES,YES
B10,YES,0.9157 Units/ml,0.8595 Units/ml,–,–
